Reference: IntAct's records for PubMed 16330715

B1: Neutrophil cytosol factor 1 (Homo sapiens), P14598 (parent)
chain: MGDTFIRHIALLGFEKRFVPSQHYVYMFLVKWQDLSEKVVYRRFTEIYEFHKTLKEMFPIEAGAINPENRIIPHLPAPKWFDGQRAAENRQGTLTEYCSTLMSLPTKISRCPHLLDFFKVRPDDLKLPTDNQTKKPETYLMPKDGKSTATDITGPIILQTYRAIANYEKTSGSEMALSTGDVVEVVEKSESGWWFCQMKAKRGWIPASFLEPLDSPDETEDPEPNYAGEPYVAIKAYTAVEGDEVSLLEGEAVEVIHKLLDGWWVIRKDDVTGYFPSMYLQKSGQDVSQAQRQIKRGAPPRRSSIRNAHSIHQRSRKRLSQDAYRRNSVRFLQQRRRQARPGPQSPGSPLEEERQTQRSKPQPAVPPRPSADLILNRCSESTKRKLASAV

Variants of: B1
Settings: with fak2_human PTK2B

Variant	effect of a mutation on the interaction
MGDTFIRHIALLGFEKRFVPSQHYVYMFLVKWQDLSEKVVYRRFTEIYEFHKTLKEMFPIEAGAINPENRIIPHLPAPKWFDGQRAAENRQGTLTEYCSTLMSLPTKISRCPHLLDFFKVRPDDLKLPTDNQTKKPETYLMPKDGKSTATDITGPIILQTYRAIANYEKTSGSEMALSTGDVVEVVEKSESGRWFCQMKAKRGWIPASFLEPLDSPDETEDPEPNYAGEPYVAIKAYTAVEGDEVSLLEGEAVEVIHKLLDGWWVIRKDDVTGYFPSMYLQKSGQDVSQAQRQIKRGAPPRRSSIRNAHSIHQRSRKRLSQDAYRRNSVRFLQQRRRQARPGPQSPGSPLEEERQTQRSKPQPAVPPRPSADLILNRCSESTKRKLASAV [W193R]	disrupting interaction strength
MGDTFIRHIALLGFEKRFVPSQHYVYMFLVKWQDLSEKVVYRRFTEIYEFHKTLKEMFPIEAGAINPENRIIPHLPAPKWFDGQRAAENRQGTLTEYCSTLMSLPTKISRCPHLLDFFKVRPDDLKLPTDNQTKKPETYLMPKDGKSTATDITGPIILQTYRAIANYEKTSGSEMALSTGDVVEVVEKSESGWWFCQMKAKRGWIPASFLEPLDSPDETEDPEPNYAGEPYVAIKAYTAVEGDEVSLLEGEAVEVIHKLLDGWWVIRKDDVTGYFPSMYLQKSGQDVSQAQRQIKRGAPPRRDDIRNAHSIHQRSRKRLSQDAYRRNDVRFLQQRRRQARPGPQSPGSPLEEERQTQRSKPQPAVPPRPSADLILNRCSESTKRKLASAV [S303D;S304D;S328D]	increasing interaction strength
